Assay results as given in article PMC314469, “Protein Interaction Networks by Proteome Peptide Scanning” (PLoS Biology, 2004).

T1: Yhr016c SH3 (YSC84_YEAST), P32793
T1 chain: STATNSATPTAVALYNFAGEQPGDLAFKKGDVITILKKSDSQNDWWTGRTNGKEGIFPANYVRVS

T2: Boi1 SH3 (BOI1_YEAST), P38041
T2 chain: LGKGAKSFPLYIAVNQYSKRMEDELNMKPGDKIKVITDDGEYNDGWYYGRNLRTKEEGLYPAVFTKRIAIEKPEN

T3: Yfr024 SH3 (LSB3_YEAST), P43603
T3 chain: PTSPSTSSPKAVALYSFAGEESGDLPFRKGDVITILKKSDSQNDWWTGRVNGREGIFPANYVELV

T4: Rvs167 SH3 (RV167_YEAST), P39743
T4 chain: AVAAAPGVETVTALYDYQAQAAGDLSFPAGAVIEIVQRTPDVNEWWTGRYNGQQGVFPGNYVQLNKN

T5: Boi2 SH3 (BOI2_YEAST), P39969
T5 chain: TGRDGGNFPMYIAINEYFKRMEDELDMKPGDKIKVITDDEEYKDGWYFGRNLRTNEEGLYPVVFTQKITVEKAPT


Legend:
Test in all cases: SPOT array
[1] = target: T1, Yhr016c SH3 (YSC84_YEAST), P32793
[2] = target: T2, Boi1 SH3 (BOI1_YEAST), P38041
[3] = target: T3, Yfr024 SH3 (LSB3_YEAST), P43603
[4] = target: T4, Rvs167 SH3 (RV167_YEAST), P39743
[5] = target: T5, Boi2 SH3 (BOI2_YEAST), P39969

| Binder | normalised SPOT signal, Boehringer light units (BLU); mean over the file's lines of this peptide [1] | normalised SPOT signal, Boehringer light units (BLU); mean over the file's lines of this peptide [2] | normalised SPOT signal, Boehringer light units (BLU); mean over the file's lines of this peptide [3] | normalised SPOT signal, Boehringer light units (BLU); mean over the file's lines of this peptide [4] | normalised SPOT signal, Boehringer light units (BLU); mean over the file's lines of this peptide [5] |
| --- | --- | --- | --- | --- | --- |
| TPAPNLPEKTRLAL [YBR208C 872-885] | 221 | 82.2 | 6030 | 65.7 | 38.3 |
| TRRPTNPFRVISVS [YNL166C 314-327] | 566 | 34.6 | 1890 | 218 | 49 |
| TTRPAPPSKAKDVA [YAL011W 347-360] | 251 | 61.3 | 767 | 125 | 72 |
| TSSPPLPPRQNVAT [YPL249C 279-292] | 47000 | 37.2 | 25300 | 16700 | 30.4 |
| TSKPSLPEKPQKLR [YPR171W 333-346] | 319 | 252 | 11600 | 63.1 | 19.2 |
| VDAPINPTKILTFI [YBR163W 375-388] | 34 | 52.9 | 0 | 67.9 | 69.3 |
| VDFPIFPRRFAKVE [YJL091C 152-165] | 1680 | 2050 | 16100 | 512 | 135 |
| TNYPVNPEKHEMDK [YBR140C 1667-1680] | 136 | 82.1 | 0 | 62.1 | 32.3 |
| TRRPHHPLKQQSTN [YIL152W 34-47] | 154 | 87.5 | 411 | 70.4 | 26.4 |
| VSPPSFPSRRSETS [YPL006W 878-891] | 42100 | 703 | 40300 | 1730 | 117 |
| TPPPVEPLKTKDLA [YBR284W 102-115] | 146 | 94.4 | 36.2 | 56.7 | 43.4 |
| TNPPIDPIREANVM [YDL171C 572-585] | 110 | 136 | 14.7 | 27.6 | 55.4 |
| TSTPPLPRRRATTS [YGL181W 247-260] | 122000 | 16400 | 36200 | 55700 | 1870 |
| TNEPTKPIRRLSTP [YMR042W 23-36] | 1280 | 111 | 4980 | 46.4 | 0 |
| TQAPLAPSRNQENE [YPR055W 308-321] | 624 | 31.7 | 1200 | 38 | 4.1 |
| VAKPKKPARPTMST [YNL298W 513-526] | 4950 | 71.1 | 9080 | 86.9 | 77.1 |
| VAPPPLPNRQLPNL [YNL094W 505-518] | 27300 | 1470 | 32400 | 32500 | 73.2 |
| TPLPFAPNKSSKKT [YIR023W 846-859] | 100 | 181 | 315 | 28.9 | 50.4 |
| TSAPDIPPRSPNRN [YDR239C 54-67] | 14800 | 65600 | 14500 | 26700 | 35900 |
| TTVPTKPKKPHDIS [YKR084C 145-158] | 114 | 81.6 | 1540 | 18.4 | 22.9 |
| VDPPFMPFRDAGYS [YFR028C 120-133] | -0 | 70.9 | 579 | 23.3 | 37.7 |
| TTAPRGPKKAQPAQ [YGR097W 176-189] | 264 | 138 | 169 | 89.5 | 43.9 |
